# Results reported in US20230174663A1 (MEDABOME, published 2023).
# Values joined by “and” are separate entries in the source; they are usually repeats but may differ in a detail not shown here. Equal values may be shown once.
# B1: anti-human TfR1 control mAb (R&D Systems) (antibody, V domains shown)
# VH: QVQLQQSGPELVKPGASVKMSCKASGYTFTNYYIHWVKQRPGQGLEWIGWIYPGDGSTKYNEKFKGKTTLTADKSSSTAYMLLSSLTSEDSAIYFCARDGSSAPKFTYWGQGTLVTVSA
# VL: DIVMTQSPSSLTVTAGEKVTMRCKSSQSLLNSGNQKNYLTWYQQKPGQPPKLLIYWASTRESGVPDRFTGSGSGTDFTLTISSVQAEDLAVYYCQNDYSYPLTFGAGTKLELK
# B2: MAb11-22.1 mAb (antibody, IgG1, V domains shown)
# VH: EVQLQQSGPELVKPGASVRISCKTSGYTFTNYYIHWMKQRPGQGLEWIGWIYPGDGNSHYNEKFKGKTTLTADKSSSTGYILLSSLTSEDSAVYFCTRDYDNYGGFAYWGQGTLVTVSA
# VL: IVMTQSPSSLTVTAGEKVTMSCKSSQSLLNSGNQKNYLTWYQQKPGQPPKLLIYWASTWESRVPDHFTGSGSGTDFTLTISSVQAEDLAVYYCQNDYSYPLTFGAGTKLELKR
# notes: Mouse hybridoma antibody, IgG1/kappa; both are kept under this molecule
# B3: MAb11-22.1 chimeric Ab (cAb) (antibody, V domains shown)
# VH: B2 VH
# VL: B2 VL
# notes: not shown: constant region of human IgG1 heavy chain (CH1-CH3); constant region of human kappa light chain (CL)
# What was measured:
# [1] = target: T1, human TfR1-GFP fusion protein (rTfR1-GFP) expressed on the membrane of CHO-DG44 cells (human, UniProt P02786 1-760); assay: FACS titration on CHO/rTfR1-GFP cells
# T1 construct: whole, on cells; also called CHO/rTfR1-GFP cells; CHO/rTfR-GFP cells; not shown: GFP (also called EGFP) fused in frame to the C-terminus
# From the text: The cDNA was in-frame fused with a GFP-coding DNA fragment to its C-terminus and then cloned into an in-house expression vector containing the human CMV promoter and a puromycin resistant gene (PuroR) for selection. […] CHO cell colonies stably expressing high-level EGFP were isolated and subcloned.
# [2] = target: T2, recombinantly expressed human TfR1 extracellular domain with a His tag (rTfR1-ECD, ACRO Biosystems) (human, UniProt P02786 89-760); assay: BLI (Octet QK), 50 nM mAb loaded on anti-mouse Fc sensors; same value printed in the rows 20, 8, 3.2 and 1.28 nM rTfR1-ECD; koff Error blank
# T2 construct: extracellular domain; Bought reagent; also called 6His-tagged rTfR1-ECD; extracellular domain of TfR1
# [3] = target: T2, recombinantly expressed human TfR1 …; assay: BLI (Octet QK), 50 nM mAb loaded on anti-mouse Fc sensors; same value printed in the rows 20, 8, 3.2 and 1.28 nM rTfR1-ECD; kon Error 9.80E+03, Full R^2 0.9909
# [4] = target: T2, recombinantly expressed human TfR1 …; assay: BLI (Octet QK), mAb captured on anti-mouse Fc (AMC) biosensors, rTfR1-ECD in solution
# [5] = target: T2, recombinantly expressed human TfR1 …; assay: direct ELISA, plate coated with 0.1 µg/mL rTfR1-ECD, detection anti-mouse IgG Fc-HRP
# Procedure: The plate was coated with 0.1 μg/mL of purified rTfR1-ECD containing a C-terminal 6×His tag. A mouse anti-6×His mAb and an isotype control Ab were used as positive and negative controls, respectively. All the primary antibodies were in 3-fold serial dilutions with a starting concentration of 3 μg/mL. Peroxidase AffiniPure Goat Anti-Mouse IgG Fey at 1:6,000 dilution was used for detection.
# 3,3′,5,5′-Tetramethylbenzidine (TMB) substrate was added and absorbance at 450 nm of wavelength was measured using a SpectraMax microplate reader (Molecular Device, San Jose, Calif.).
# [6] = target: T2, recombinantly expressed human TfR1 …; assay: BLI (Octet QK), 10 nM mAb loaded on anti-mouse Fc sensors; same value printed in the rows 20, 8, 3.2 and 1.28 nM rTfR1-ECD; koff Error blank
# [7] = target: T2, recombinantly expressed human TfR1 …; assay: BLI (Octet QK), 10 nM mAb loaded on anti-mouse Fc sensors; same value printed in the rows 20, 8, 3.2 and 1.28 nM rTfR1-ECD; kon Error 2.12E+04, Full R^2 0.989
# [8] = target: T2, recombinantly expressed human TfR1 …; assay: BLI (Octet QK), 50 nM cAb loaded on anti-human Fc sensors; same value printed in the rows 50, 20, 8, 3.2 and 1.28 nM rTfR1-ECD; kon Error 2.34E+03, Full R^2 0.9963
# Procedure: (§1) Concentrations of rTfR1-ECD ranged from 50 nM to 1.28 nM by 2.5-fold serial dilutions.
# [9] = target: T2, recombinantly expressed human TfR1 …; assay: BLI (Octet QK), 10 nM cAb loaded on anti-human Fc sensors; same value printed in the rows 50, 20, 8, 3.2 and 1.28 nM rTfR1-ECD; koff Error blank
# Procedure: as §1
# [10] = target: T2, recombinantly expressed human TfR1 …; assay: BLI (Octet QK), 50 nM cAb loaded on anti-human Fc sensors; same value printed in the rows 50, 20, 8, 3.2 and 1.28 nM rTfR1-ECD; koff Error blank
# Procedure: as §1
# [11] = target: T2, recombinantly expressed human TfR1 …; assay: BLI (Octet QK), cAb captured on anti-human Fc (AHC) biosensors, rTfR1-ECD 50 nM to 1.28 nM in solution
# Procedure: as §1
# [12] = target: T2, recombinantly expressed human TfR1 …; assay: BLI (Octet QK), 10 nM cAb loaded on anti-human Fc sensors; same value printed in the rows 50, 20, 8, 3.2 and 1.28 nM rTfR1-ECD; kon Error 5.18E+03, Full R^2 0.9885
# Procedure: as §1
# T2 sequence (P02786 other isoform, or with tags, fused parts or gaps): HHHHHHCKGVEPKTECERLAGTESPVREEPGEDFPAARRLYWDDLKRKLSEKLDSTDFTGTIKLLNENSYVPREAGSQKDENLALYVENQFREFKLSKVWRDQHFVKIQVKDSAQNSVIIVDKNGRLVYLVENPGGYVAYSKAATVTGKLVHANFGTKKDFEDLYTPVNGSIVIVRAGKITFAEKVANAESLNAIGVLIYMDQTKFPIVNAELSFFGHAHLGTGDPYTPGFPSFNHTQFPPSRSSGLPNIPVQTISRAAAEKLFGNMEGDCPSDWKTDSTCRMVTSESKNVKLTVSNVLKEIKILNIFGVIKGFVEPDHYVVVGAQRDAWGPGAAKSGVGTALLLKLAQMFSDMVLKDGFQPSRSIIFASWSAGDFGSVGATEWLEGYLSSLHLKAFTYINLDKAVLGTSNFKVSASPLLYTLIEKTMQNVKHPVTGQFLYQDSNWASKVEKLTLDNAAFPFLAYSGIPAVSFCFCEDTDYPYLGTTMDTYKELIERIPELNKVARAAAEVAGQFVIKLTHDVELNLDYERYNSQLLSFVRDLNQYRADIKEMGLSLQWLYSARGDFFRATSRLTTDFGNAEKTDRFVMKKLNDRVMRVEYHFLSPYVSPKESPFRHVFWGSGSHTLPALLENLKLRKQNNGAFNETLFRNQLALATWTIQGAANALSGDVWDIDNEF
# T1 sequence (P02786 whole entry, the tested form may be a part): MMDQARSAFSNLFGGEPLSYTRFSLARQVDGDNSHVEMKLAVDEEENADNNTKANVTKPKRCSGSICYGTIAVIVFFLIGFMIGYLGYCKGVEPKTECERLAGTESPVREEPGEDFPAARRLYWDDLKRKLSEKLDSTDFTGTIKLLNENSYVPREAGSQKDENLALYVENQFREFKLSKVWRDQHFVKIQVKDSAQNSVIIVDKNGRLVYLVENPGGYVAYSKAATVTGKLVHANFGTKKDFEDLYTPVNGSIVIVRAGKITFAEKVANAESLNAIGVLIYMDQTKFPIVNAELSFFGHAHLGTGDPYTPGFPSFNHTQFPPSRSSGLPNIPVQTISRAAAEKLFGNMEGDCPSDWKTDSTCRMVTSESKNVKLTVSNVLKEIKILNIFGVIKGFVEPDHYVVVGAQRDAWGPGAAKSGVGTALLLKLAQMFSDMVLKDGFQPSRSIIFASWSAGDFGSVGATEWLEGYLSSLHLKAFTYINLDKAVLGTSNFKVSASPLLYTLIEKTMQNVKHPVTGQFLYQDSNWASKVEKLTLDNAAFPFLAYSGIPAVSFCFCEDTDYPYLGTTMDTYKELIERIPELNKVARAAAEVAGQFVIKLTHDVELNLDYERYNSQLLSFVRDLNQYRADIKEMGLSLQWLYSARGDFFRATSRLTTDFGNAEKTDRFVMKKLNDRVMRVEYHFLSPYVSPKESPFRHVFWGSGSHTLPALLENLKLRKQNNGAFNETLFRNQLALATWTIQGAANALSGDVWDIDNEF
Binder,IC50 [1],koff [2] [s⁻¹],kon [3] [M⁻¹ s⁻¹],Kd [4] [pM],EC50 (read off the curve) [5] [µg/mL],koff [6] [s⁻¹],kon [7] [M⁻¹ s⁻¹],kon [8] [M⁻¹ s⁻¹],koff [9] [s⁻¹],koff [10] [s⁻¹],Kd [11] [pM],kon [12] [M⁻¹ s⁻¹]
B1,~0.1 µg/mL,–,–,–,–,–,–,–,–,–,–,–
B2,0.03 µg/mL and 0.04 µg/mL,< 1e-07,604000,< 1,~0.04,< 1e-07,1.16e+06,–,–,–,–,–
B3,–,–,–,–,–,–,–,196000,< 1e-07,< 1e-07,< 1,244000
